Measurements published in patent US20220112288A1 (published 2022).

Target: T1, Rhesus macaque CD4-HIS (Acro Biosystems, Cat. CD4-C52H7) (rhesus macaque, UniProt P16003 26-390)
T1 construct: Bought reagent; also called Rhesus CD4; rhesus CD4-HIS; not shown: His tag
Test: BLI (Octet Red384); Ab on anti-mouse Fc (AMC) sensor; rhesus CD4-HIS 100/50/25 nM; global 1:1 fit;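 note: antibodies loaded at 10 µg/mL, an unrelated mouse-derived antibody served as internal reference, curves fit over association and dissociation phases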

T1 sequence (P16003 26-390 limits assumed): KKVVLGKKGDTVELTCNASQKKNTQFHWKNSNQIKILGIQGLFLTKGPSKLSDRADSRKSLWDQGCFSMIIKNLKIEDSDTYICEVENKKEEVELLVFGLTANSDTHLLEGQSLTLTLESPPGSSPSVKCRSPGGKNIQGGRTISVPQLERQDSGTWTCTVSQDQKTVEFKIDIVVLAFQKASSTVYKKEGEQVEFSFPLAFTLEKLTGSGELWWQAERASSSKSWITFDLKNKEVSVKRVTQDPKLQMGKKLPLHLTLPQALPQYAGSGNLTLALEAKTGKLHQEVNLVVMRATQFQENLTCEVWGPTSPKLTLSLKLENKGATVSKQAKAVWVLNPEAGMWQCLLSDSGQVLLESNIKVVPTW

Binder	Kd [nM]	Response	koff [s⁻¹]	kon [M⁻¹ s⁻¹]
75110_06D16A (antibody, V domains shown, Tested as antibody purified from AlivaMab Mouse hybridoma supernatant (human variable domains, kappa; mouse Fc, captured on anti-mouse IgG Fc sensors); also called ADS75110 purified AMM Ab) VH: QVQLQQWGAGLLKPSETLSLTCAVYGGSFSGYYWSWIRQPPGKGLEWIGEINHSGSTNYNPSLKSRVTISVVTSKNQFSLKLSSVTAADTAVYYCARVLNWFDPWGQGTLVTVSS VL: DIQMTQSPSSVSASVGDRVTITCRASQDIADWLAWYQQKPGKAPKLLIYAASSFQSGVPSRFSGSGSGTDFTLTISSLQPEDFATYFCQQANSFPYTFGQGTKLEIK	240	0.09	0.022	91000
75110_08D24A (antibody, V domains shown, Tested as antibody purified from AlivaMab Mouse hybridoma supernatant (human variable domains, kappa; mouse Fc, captured on anti-mouse IgG Fc sensors); also called ADS75110 purified AMM Ab) VH: QVQLQESGPGLVKPSETLSLTCTVSGGSISGFYWSWIRQPAGKGLEWIGRIYTSENTNYNPSLKSRVTMSVDTSKNQFSLKLSSVTAADTAVYYCARDREGYYYYGMDVWGQGTTVTVSS VL: DIQMTQSPSSLSASVGDRVTITCQASQDISNYLNWYQQKPGKAPKLLIYAASNLETGVPSRFSGSGSGTDFTFTISSLQPEDIATYYCQQYDSLPITFGQGTRLEIK	53	0.05	0.0017	32000
75110_06E14A (antibody, V domains shown, Tested as antibody purified from AlivaMab Mouse hybridoma supernatant (human variable domains, kappa; mouse Fc, captured on anti-mouse IgG Fc sensors); also called ADS75110 purified AMM Ab) VH: QVQLQESGPGLVKPSETLSLTCTVSGGSISNYFWSWIRQPAGKGLEWIGRIYSSGNTNYNPSLKSRVTMSVDTSKNQFSLKLSSVTAADTAVYYCARDREDYYYYGMDVWGQGTTVTVSS VL: DIQMTQSPSSLSASVGDRVTITCQASQDISNYLNWYQQKPGKAPKLLIYGASILETGVPSRFTGSGSGTDFTFTISSLQPEDIATYYCQQYDSLPITFGQGTRLEIK	230	0.1	0.00069	3000
75110_08M20A (antibody, V domains shown, Tested as antibody purified from AlivaMab Mouse hybridoma supernatant (human variable domains, kappa; mouse Fc, captured on anti-mouse IgG Fc sensors); also called ADS75110 purified AMM Ab) VH: QVQLQESDPGLVKPSETLSLTCTVSGGSISSYYWSWIRQPAGKGLEWIGRIYASGSTNYNPSLKSRVTMSVDTSKNQFSLKLSSVTAADTAVYYCARDREGYYYYGMDVWGQGTTVTVSS VL: DIQMTQSPSSLSASVGDRVTITCQASQDISKYLNWYQQKPGKAPNLLIYAASNLETGVPSRFSGSGSGTDFTFTISSLQPEDIAAYYCQQYDSLPITFGQGTRLEIK	17	0.17	0.0022	130000
75110_06G04A (antibody, V domains shown, Tested as antibody purified from AlivaMab Mouse hybridoma supernatant (human variable domains, kappa; mouse Fc, captured on anti-mouse IgG Fc sensors); also called ADS75110 purified AMM Ab) VH: QVQLLESGPGLVKPSETLSLTCTVSGGSISSYYWSWIRQPAGKGLEWIGRIYISGSTNYNPSLKSRVTMSIDTSENQFSLNLSSVTAADTAVYYCARELERPYYYGMDVWGQGTTVTVSS VL: DIQMTQSPSSLSASVGDRVTITCQASQDISNYLNWYQQKPGKAPKLLIYNASTLETGVPSRFSGSGSGTDFTFTISSLQPEDIATYYCQQYDNLPLTFGGGTKVEFK	2.1	0.05	0.0011	510000
75110_06K03A (antibody, V domains shown, Tested as antibody purified from AlivaMab Mouse hybridoma supernatant (human variable domains, kappa; mouse Fc, captured on anti-mouse IgG Fc sensors); also called ADS75110 purified AMM Ab) VH: QVQLQESGPGLVKPSETLSLTCTVSGGSISTYYWSWIRQPAGKGLEWIGRINTSGSTTYNPSLKSRVTMSVDTSKNQFSLKLSSVTAADTAVYYCARELERYYYYGMDVWGQGTTVTVSS VL: DIQMTQSPSSLSASVGDRVTITCQASQDISNYLNWYQQKPGKAPKLLIYYASILETGVPSRFSGSGSGTDFTFTISSLQPEDIATYYCQQYDSLPLTFGGGTKVEIK	7.8	0.13	0.00035	45000
75110_07B16A (antibody, V domains shown, Tested as antibody purified from AlivaMab Mouse hybridoma supernatant (human variable domains, kappa; mouse Fc, captured on anti-mouse IgG Fc sensors); also called ADS75110 purified AMM Ab) VH: QVQLQQWGAGLLKPSETLSLTCAVYGGSFSGYYWSWIRQSPGKGLEWIGEINQSGSTNYNPSLKSRVTISVDTSKDQFSLKLSSVTAADTAVYYCARVINWFDSWGQGSLVTVSS VL: DIQMTQSPSSVSASVGDRVTITCRASQGISSWLAWYQQKPGKAPKLLIYDASSFQSGVPSRFSGSGSGTDFTLTISSLQTDDFATYYCQQANSFPYTFGQGTKLEIK	13	0.17	0.0033	250000
75110_07E04A (antibody, V domains shown, Tested as antibody purified from AlivaMab Mouse hybridoma supernatant (human variable domains, kappa; mouse Fc, captured on anti-mouse IgG Fc sensors); also called ADS75110 purified AMM Ab) VH: EVQLVESGGGLVQPGGSLRLSCAVSGFTFSSYDMHWVRQATGKGLEWVSTIGTAGDTYYPGSVKGRFTISRENAKKFLYLQMNSLRAGDTAVYYCARGGYYYYGMDVWGQGTTVTVSS VL: not shown	2.6	0.02	0.00042	160000
75110_10N21A (antibody, V domains shown, Tested as antibody purified from AlivaMab Mouse hybridoma supernatant (human variable domains, kappa; mouse Fc, captured on anti-mouse IgG Fc sensors); also called ADS75110 purified AMM Ab) VH: EVQLVESGGGLVQPGGSLRLSCAASGFTFSSYDMHWVRQVTGKGLEWVSTIGTAGDTYYPGSVKGRFTISRENAKNSLYLQMNSLRAGDTAVYYCARGGYYYYGMDVWGQGTTVTVSS VL: EIVLTQSPGTLSLSPGERATLSCRASQSFISSYLAWYQQKPGQAPRLLIYGASSRATGIPDRFSGSGSGTDFTLTISRLDPEDFAVYYCQQSGNSPFTFGPGTKVDVK	8.2	0.07	0.001	130000
75110_13C07A (antibody, V domains shown, Tested as antibody purified from AlivaMab Mouse hybridoma supernatant (human variable domains, kappa; mouse Fc, captured on anti-mouse IgG Fc sensors); also called ADS75110 purified AMM Ab) VH: EVQLVESGGVLVQPGGSLRLSCAASGFTFSNYDMHWVRQATGKGLEWVSTIGTAGDTYYPGSVKGRFTLSRENAKNSLYLQMHSLRAGDTAVYYCARGAYGYYGMDVWGQGTTVTVSS VL: not shown	3.9	0.05	0.00085	220000
75110_11D03A (antibody, V domains shown, Tested as antibody purified from AlivaMab Mouse hybridoma supernatant (human variable domains, kappa; mouse Fc, captured on anti-mouse IgG Fc sensors); also called ADS75110 purified AMM Ab) VH: EVQLVESGGGLVQPGGSLRLSCAASGFTFSSYWMSWVRQAPGKGLEWVANINQDGNEKYYVDSVKGRFTISRDNAKNSLFLQMNSLRAEDTAVYYCAREGGQWLALDYWGQGALVTVSS VL: DIQMTQSPSSVSASVGDRVTITCRASQGISSWLAWYQQKPGKAPKFLISGASSLQSGVPSRFSGSGSGTDFTLTISSLQPEDFATYYCQQANSFPWTFGQGTKVEIK	3.5	0.11	0.0018	530000
75110_07H07A (antibody, V domains shown, Tested as antibody purified from AlivaMab Mouse hybridoma supernatant (human variable domains, kappa; mouse Fc, captured on anti-mouse IgG Fc sensors); also called ADS75110 purified AMM Ab) VH: EVQVVESGGGLVQPGGSLRLSCAASGFTFSSYWMSWVRQAPGKGLEWVANIKEEGSEKYYVDSVKGRFTISRDNAKNSLYLQMNSLRAEDTAVYYCVREGGQWLALDYWGQGTLVTVSS VL: DIQMTQSPSSVSGSVGDRVTITCRASQGISSWLAWYQQKPGKAPKLLIFGASSLQSGVPSRFSGSGSGTDFTLTISSLQPEDFATYYCQQANSFPWTFGQGTKVQIK	32	0.15	0.003	94000
75110_09G15A (antibody, V domains shown, Tested as antibody purified from AlivaMab Mouse hybridoma supernatant (human variable domains, kappa; mouse Fc, captured on anti-mouse IgG Fc sensors); also called ADS75110 purified AMM Ab) VH: EVQLVESGGGLVQPGGSLRLSCAASGFTFSDYWMSWVRQAPGKGLEWVANINQDGSEKYSVDSVKGRFTISRDNAKNSLYLQMNSLRAEDTAIFYCAREGGQWLALDYWGQGTLVTVSS VL: DIQMTQSPSSVSASVGDRVTITCRASQGISSWLAWYQQKPGKAPKLLIYGASSLQSGVPSRFSGSGSGTDFTLTINSLQPEDFTTYYCQQANIFPWTFGQGTKVEIK	36	0.27	0.003	84000
75110_09N20A (antibody, V domains shown, Tested as antibody purified from AlivaMab Mouse hybridoma supernatant (human variable domains, kappa; mouse Fc, captured on anti-mouse IgG Fc sensors); also called ADS75110 purified AMM Ab) VH: EVQLVESGGGLVQPGGSLRLSCAASGFTFSSYWMSWVRQAPGKGLEWVANINEDGSEKYYVDSVKGRFTISRDNAKNSLYLQMNSLRAEDTAVYYCVREGGQWLALDYWGQGTLVTVSS VL: DIQMTQSPSSVSASVGDRVTITCRASQGISSWLAWYQQKPGKAPKLLIYAASSLQSGVPSSFSGSGSGTDFTLTINSLQPEDFATYYCQQANSFPWTFGQGTKVAIK	44	0.14	0.004	92000
75110_12C19A (antibody, V domains shown, Tested as antibody purified from AlivaMab Mouse hybridoma supernatant (human variable domains, kappa; mouse Fc, captured on anti-mouse IgG Fc sensors); also called ADS75110 purified AMM Ab) VH: EVQLVESGGGLVQPGGSLRLSCAASGFTFSSYWMSWVRQAPGKGLEWVANIKEDGSDKYYVDSVKGRFTISRDNAKNSLYLQMNSLRAEDTAVHYCVREGGQWLALDYWGQGTLVTVSS VL: DIQMTQSPSSVSGSVGDRVTITCRASQGISSWLAWYQQKPGKAPKLLIYGASSLQSGVPSRFSGSGSGTDFTLTISSLQPEDFVTYYCQQANSFPWTFGQGTKVEIK	16	0.1	0.0038	240000
75110_12H17A (antibody, V domains shown, Tested as antibody purified from AlivaMab Mouse hybridoma supernatant (human variable domains, kappa; mouse Fc, captured on anti-mouse IgG Fc sensors); also called ADS75110 purified AMM Ab) VH: EVQLVESGGGLVQPGGSLRLSCAASGFTFSDYWMSWVRQAPGKGLEWVANIKEDGNEKYYVDSVKGRFTISRDNAKNSLFLQMNSLRAEDTAVYYCAREGGQWLALDYWGQGALVTVSS VL: DIQMTQSPSSVSASVGDRVTITCRASQGISSWLAWYQQKPGKAPKFLISGASSLQSGVPSRFTGSGSGTDFTLTISSLQPEDFATYYCQQANSFPWTFGQGTKVEIK	22	0.23	0.0032	150000
75110_12H19A (antibody, V domains shown, Tested as antibody purified from AlivaMab Mouse hybridoma supernatant (human variable domains, kappa; mouse Fc, captured on anti-mouse IgG Fc sensors); also called ADS75110 purified AMM Ab) VH: EVQLVESGGGLVQPGGSLRLSCAASGFTFSSYWMSWVRQAPGQGLEWVANINEDGNEKYHVDSVKGRLTISRDNAKNSLYLQMNSLRGVDTAVYFCAREGGQWLALDYWGQGALVTVSS VL: DIQMTQSPSSVSASVGDRVSITCRASQGISSWLAWYQQKPGKAPKLLIYGASGLQSGVPSRFSGSGSGTDFTLTISSLQPEDFATYYCQQANSFPWTFGQGTKVEIK	14	0.28	0.0026	190000
75110_07J02A (antibody, V domains shown, Tested as antibody purified from AlivaMab Mouse hybridoma supernatant (human variable domains, kappa; mouse Fc, captured on anti-mouse IgG Fc sensors); also called ADS75110 purified AMM Ab) VH: EVQLVESGGGLVQPGGSLRLSCAASGFTFSSYWMSWVRQAPGKGLEWVANIKEDGSEKYYVDSVKGRFTISRDNAKNSLYLQMNSLRAEDTAVYYCARDGSYSGYGMDVWGQGTTVTVSS VL: AIQMTQSPSSLSASVGDRVTITCRASQGIRNDLGWYQQKPGKAPKLLIYAASSLQSGVPSRFSGRGSGTDFALTISSLQPEDFATYYCLLDYNYPYTFGQGTRLEIK	18	0.14	0.0028	150000
75110_07N04A (antibody, V domains shown, Tested as antibody purified from AlivaMab Mouse hybridoma supernatant (human variable domains, kappa; mouse Fc, captured on anti-mouse IgG Fc sensors); also called ADS75110 purified AMM Ab) VH: QVQLQESGPGLVKPSETLSLTCSVSGVSSTSFYWSWIRQPAGKGLDWIGRIYTSGSTNYNPSLKSRVTMSVDTSKNQFSLKLSSVTAADTAVYYCARDPGYSDAFAIWGQGTMVTVSS VL: not shown	< 0.001	0.03	< 1e-07	13000
75110_08A13A (antibody, V domains shown, Tested as antibody purified from AlivaMab Mouse hybridoma supernatant (human variable domains, kappa; mouse Fc, captured on anti-mouse IgG Fc sensors); also called ADS75110 purified AMM Ab) VH: EVQLVESGGGLVQPGGSLRLSCAASGFIFSSYWMSWVRQAPGKGLEWVANIKQDGSEKYYMDSVKGRFTISRDNAKNSLYLQMNSLRAEDTAVYYCARDNSYYYYGMDVWGQGTTVTVSS VL: AIQMTQSPSSLSASVGDRVTITCRASQGIRDDLGWYQQKPGKAPKLLIFAASSLQSGVPSSFSGSGSGTDFTLTISSLQPEDFATYYCLHHYNYPYTFGQGTKLEIK	5.1	0.15	0.00098	190000
